The labels stand for the following.
B1: ASAP1 BAR-PH (residues 1-431), His6-tagged, wild type (domain or fragment)
chain: not shown
notes: ASAP1, BAR-PH tandem, residues 1-431; also called ASAP1-BAR-PH-His6; WT BAR-PH; source: E. coli LOBSTR (DE3) RIL or BL21 (DE3), purified (Ni-NTA or HisTrap; buffer exchange or Sephacryl S100)
B2: [K283A, K284A] ASAP1-BAR-PH-His6 (domain or fragment)
chain: not shown
notes: ASAP1, BAR-PH tandem, residues 1-431; Mutant of m2; source: E. coli LOBSTR (DE3) RIL or BL21 (DE3), purified (Ni-NTA or HisTrap; buffer exchange or Sephacryl S100)
B3: [K229A, K231A, K232A] ASAP1-BAR-PH-His6 (domain or fragment)
chain: not shown
notes: as for B2
B4: Q72E ASAP1-BAR-PH-His6 single mutant (domain or fragment)
chain: not shown
notes: as for B2
B5: [Q72A, Y82A, N83A] ASAP1-BAR-PH-His6 (domain or fragment)
chain: not shown
notes: ASAP1, BAR-PH tandem, residues 1-431; Mutant of m2; the text prints [Q72A, Y82A, N83A] throughout; also called cluster 1b Ala triple mutant; source: E. coli LOBSTR (DE3) RIL or BL21 (DE3), purified (Ni-NTA or HisTrap; buffer exchange or Sephacryl S100)
B6: [K283E, K284E] ASAP1-BAR-PH-His6 (domain or fragment)
chain: not shown
notes: as for B2
B7: [Q72E, Y82F, N83D] ASAP1-BAR-PH-His6 (domain or fragment)
chain: not shown
notes: as for B2
B8: ASAP2 BAR-PH (aa 1-397) (domain or fragment)
chain: not shown
notes: ASAP2, BAR-PH tandem, residues 1-397; source: E. coli LOBSTR (DE3) RIL or BL21 (DE3), purified (Ni-NTA or HisTrap; buffer exchange or Sephacryl S100)
B9: ASAP3 BAR-PH (aa 1-394) (domain or fragment)
chain: MPEQFSVAEFLAVTAEDLSSPAGAAAFAAKMPRYRGAALAREEILEGDQAILQRIKKAVRAIHSSGLGHVENEEQYREAVESLGNSHLSQNSHELSTGFLNLAVFTREVAALFKNLIQNLNNIVSFPLDSLMKGQLRDGRQDSKKQLEKAWKDYEAKMAKLEKERDRARVTGGIPGEVAQDMQRERRIFQLHMCEYLLKAGESQMKQGPDFLQSLIKFFHAQHNFFQDGWKAAQSLFPFIEKLAASVHALHQAQEDELQKLTQLRDSLRGTLQLESREEHLSRKNSGCGYSIHQHQGNKQFGTEKVGFLYKKSDGIRRVWQKRKCGVKYGCLTISHSTINRPPVKLTLLTCQVRPNPEEKKCFDLVTHNRTYHFQAEDEHECEAWVSVLQNSKD
notes: ASAP3, BAR-PH tandem, residues 1-394; source: E. coli LOBSTR (DE3) RIL or BL21 (DE3), purified (Ni-NTA or HisTrap; buffer exchange or Sephacryl S100)

Experimental findings from article PMC8902617, “A lysine-rich cluster in the N-BAR domain of ARF GTPase-activating protein ASAP1 is necessary for binding and bundling actin filaments” (The Journal of Biological Chemistry, 2022) are described below.

The target of the assay is filamentous actin (rabbit skeletal muscle actin) (rabbit, UniProt P68135 1-377). In words: co-sedimentation; high-speed actin cosedimentation: test protein (2 μM) with F-actin (0-25 μM) in F-actin buffer (5 mM Hepes pH 8.0, 100 mM KCl, 2 mM MgCl2, 0.2 mM CaCl2, 1 mM ATP, 1 mM DTT) for 30 min, 150,000g for 90 min at 24 °C and/or 4 °C; supernatant and pellet on SDS-PAGE, % test protein in the pellet (ACAP1 also by anti-His6 immunoblot). The settings on record: both partners purified. Background: In western blotting, separated proteins are transferred to a membrane and probed.
A word on the EC50: it is the concentration at which the effect is half-maximal. The molecule B1 had an EC50 of approximately 1000 nM.
As for B2, the binding result is given as “binds”.
As to B3, the binding result is recorded as “binds”.
For the molecule B4, the binding result is “binds”.
Still for that read-out and setting: to B5 belongs “binds”; to B6, “binds”; to B7, “binds”.
On to B8, for which the EC50 is approximately 4000 nM.
In the case of B9, the EC50 was approximately 1000 nM.
